Experimental data published in publication PMC8990217, “DUX4 is a multifunctional factor priming human embryonic genome activation” (iScience, 2022).
Each block holds one binder with its values, some of them ahead of it.

Legend:
[1] = target: T1, human KIX domain of CBP (residues 587-673) with 36 extra N-terminal residues (human, UniProt Q92793 587-673, RED-tris-NTA dye bound non-covalently to the His tag); test: MST; His-tagged KIX labelled with RED-tris-NTA, 20 nM; peptide varied; PBS-Tween (pH 7.4; 0.05% v/v Tween 20); Monolith NT; conditions: both partners purified
T1 construct: synthetic codon-optimised gene in pET100/TOPO; construct 14.5 kDa; no cleavage is described; also called His-tagged KIX domain; source: E. coli BL21 DE3, purified (Histrap HP, Resource Q, Superdex 75); not shown: His6, N-terminal, kept
T1 sequence (Q92793 587-673): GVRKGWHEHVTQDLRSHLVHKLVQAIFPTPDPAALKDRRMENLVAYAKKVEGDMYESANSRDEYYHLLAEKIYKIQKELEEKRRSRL

[2] = target: T1, human KIX domain of CBP (residues …); test: MST; as a1, KBM peptide binding to labelled KIX in the presence of the 9aaTAD peptide (its concentration not told); conditions: both partners purified

Kd [1]: ~600 nM
Kd [2]: ~1100 nM
B1: DUX4 KBM peptide for binding analysis (peptide)
peptide: EEEYRALLEE
notes: source: synthetic peptide, bought: GenScript

Kd [1]: ~200 nM
B2: DUX4 9aaTAD peptide for binding analysis (peptide)
peptide: CGLLLDELLASPEFLQQ
notes: as for B1
